{
  "source": "patent US20240197828A1",
  "about": "“Chimeric molecule to treat sepsis and other inflammatory conditions” (THE FEINSTEIN INSTITUTES FOR MEDICAL RESEARCH, priority 2022, published 2024)",
  "molecules": {"B1": {"name": "milk fat globule-epidermal growth factor—factor VIII (protein, listed as Mus musculus)", "chain": "MQVSRVLAALCGMLLCASGLFAASGDFCDSSLCLNGGTCLTGQDNDIYCLCPEGFTGLVCNETERGPCSPNPCYNDAKCLVTLDTQRGDIFTEYICQCPVGYSGIHCETETNYYNLDGEYMFTTAVPNTAVPTPAPTPDLSNNLASRCSTQLGMEGGAIADSQISASSVYMGFMGLQRWGPELARLYRTGIVNAWTASNYDSKPWIQVNLLRKMRVSGVMTQGASRAGRAEYLKTFKVAYSLDGRKFEFIQDESGGDKEFLGNLDNNSLKVNMFNPTLEAQYIKLYPVSCHRGCTLRFELLGCELHGCSEPLGLKNNTIPDSQMSASSSYKTWNLRAFGWYPHLGRLDNQGKINAWTAQSNSAKEWLQVDLGTQRQVTGIITQGARDFGHIQYVASYKVAHSDDGVQWTVYEEQGSSKVFQGNLDNNSHKKNIFEKPFMARYVRVLPVSWHNRITLRLELLGC"}},
  "test_system": "murine peritoneal cavity (PerC) macrophages",
  "assay": "eCIRP-induced cytokine release in peritoneal cavity macrophages",
  "assay_type": "cell-based, mouse",
  "conditions": "WT PerC macrophages, eCIRP treatment",
  "procedure": "Murine peritoneal cavity (PerC) macrophages were isolated from adult, WT mice and MFG-E8“ ” mice. Briefly, mice were euthanized using CO2 asphyxiation. Peritoneal fluid and cells were isolated using peritoneal lavage by washing ice-cold Ca^+2 and Mg^+2 free Hank's Balanced Salt Solution (HBSS) with 2% fetal bovine serum (FBS, Solon, Ohio). Total PerC macrophages were isolated by centrifugation at 400 g for 10 minutes at 4° C. After centrifugation, the cell pellet was suspended in culture media containing RPMI 1640 (Invitrogen) supplemented with 25 mM HEPES, 2 mM glutamine, 10% FBS, penicillin (100 IU/mL) and streptomycin (100 IU/mL). PerC macrophages were allowed to adhere in 6-well plates for 4 hours in humidified incubator at 37 °C. […] Adhered PerC macrophages were then mechanically detached from the plate and counted. […]\nThe mouse macrophage cell culture supernatants were analyzed for cytokine levels using ELISA kits (BD Biosciences, CA). […] TNF-α and IL-6 levels were measured in cell supernatants by ELISA in accordance with respective manufacturers' instructions (BD Biosciences, CA). Blood was collected, centrifuged at 4,000 RPM for 10 minutes, and sera was separated and analyzed for cytokine levels using ELISA kits (BD Biosciences, CA). TNF-α and IL-6 levels in the serum were measured by ELISA in accordance with respective manufacturers' instructions.",
  "data": [
    {"molecule": "B1", "values": [
      {"measurement": "IL-6 levels in cell supernatants", "result": "reduced levels"},
      {"measurement": "TNFα levels in cell supernatants", "result": "reduced levels"}
    ]}
  ]
}
